From patent US20160264664A1 come the findings set out here.

The target of assay [1] is T1, mouse P2X7 (mouse) (UniProt Q9Z1M0).
T1 sequence: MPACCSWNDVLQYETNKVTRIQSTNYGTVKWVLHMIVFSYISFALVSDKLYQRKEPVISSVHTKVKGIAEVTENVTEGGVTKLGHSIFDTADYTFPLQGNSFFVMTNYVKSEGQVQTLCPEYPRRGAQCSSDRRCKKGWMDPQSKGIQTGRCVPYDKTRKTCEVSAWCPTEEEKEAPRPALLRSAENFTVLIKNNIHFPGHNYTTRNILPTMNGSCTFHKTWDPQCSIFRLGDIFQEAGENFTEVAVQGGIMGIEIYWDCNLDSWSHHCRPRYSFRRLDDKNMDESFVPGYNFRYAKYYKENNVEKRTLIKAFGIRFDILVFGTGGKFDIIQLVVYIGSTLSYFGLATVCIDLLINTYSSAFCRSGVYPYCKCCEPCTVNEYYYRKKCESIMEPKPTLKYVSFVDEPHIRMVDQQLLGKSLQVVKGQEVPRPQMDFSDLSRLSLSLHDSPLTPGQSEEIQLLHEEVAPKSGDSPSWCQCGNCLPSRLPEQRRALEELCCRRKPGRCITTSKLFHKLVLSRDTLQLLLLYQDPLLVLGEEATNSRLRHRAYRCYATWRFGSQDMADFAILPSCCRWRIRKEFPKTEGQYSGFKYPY
In words: cell-based or functional assay.

The target in assay [2] is plasma-derived HBsAg particles (Biodesign) (hepatitis B virus). In words: SPR (Biacore), periplasmic extract over immobilised plasma-derived HBsAg particles, 1:1 dissociation model. Background: SPR reads the build-up and loss of mass on a sensor chip optically.

B1: 8G11-35GS-8G11 (VHH)
chain: EVQLVESGGGLVQAGGSLRLSCAASGNFFRVNTMAWYRQAPGKQRELVADITRGDRTNYADTVNGRFTISRDNVRNTVYLQMNGLRPEDTAAYYCYAVIELGVLEPRDYWGQGTQVTVSSGGGGSGGGGSGGGGSGGGGSGGGGSGGGGSGGGGSEVQLVESGGGLVQAGGSLRLSCAASGNFFRVNTMAWYRQAPGKQRELVADITRGDRTNYADTVNGRFTISRDNVRNTVYLQMNGLRPEDTAAYYCYAVIELGVLEPRDYWGQGTQVTVSS
For B1, in assay [1], the IC50, CD62L shedding at 20 µM NAD came to 0.52 nM; the IC50, CD62L shedding at 100 µM ATP amounted to 0.2 nM; the potency increase vs. monovalent 8G11 (ATP) stood at 84 fold; the potency increase vs. monovalent 8G11 (NAD) worked out at 146 fold.

B2: HBSAGPMP2E7 (VHH)
VHH: EVQLVESGGGLLQAGGSLRLSCAASERAFIIYGKAWFRQAPGKEREFVAGINWNGGDLHYADSVKGRFTISRDNTNNVVYLQMNSLKSEDTAVYYCAVRRGTAYETDVSSYEWGTQVTVSS
Usually koff stands for the first-order rate constant of dissociation. Low readings indicate slow dissociation, high ones fast dissociation. As for B2, the dissociation rate constant (koff) in assay [2] was 0.00088 s⁻¹.

B3: 13A7-35GS-13A7 (VHH)
chain: EVQLVESGGGLVQPGESLRLSCTASRFMLDYYDIGWFRQAPGKEREGVSCRFTNDGSTAYADSVKGRFTISRDIVKHTVYLQMNSLQPEDTAVYYCAAGPLTKRRQCVPGDFSMDFWGEGTLVTVSSGGGGSGGGGSGGGGSGGGGSGGGGSGGGGSGGGGSEVQLVESGGGLVQPGESLRLSCTASRFMLDYYDIGWFRQAPGKEREGVSCRFTNDGSTAYADSVKGRFTISRDIVKHTVYLQMNSLQPEDTAVYYCAAGPLTKRRQCVPGDFSMDFWGEGTLVTVSS
In assay [1], B3 returned an IC50, CD62L shedding at 20 µM NAD of 0.3 nM; an IC50, CD62L shedding at 100 µM ATP of 0.1 nM; a potency increase vs. monovalent 13A7 (ATP) of 9 fold; a potency increase vs. monovalent 13A7 (NAD) of 23 fold.

B4: 14D5-35GS-14D5 (VHH)
chain: EVQLVESGGGLVQAGGSLRLSCAASGSPISSYAMGWYRQAPGKPRELVARIYTGGTAWYEDSVKGRFTISRDNAQNTVYLQMNSLKSEDTAVYYCHGRVRYDYWGQGTQVTVSSGGGGSGGGGSGGGGSGGGGSGGGGSGGGGSGGGGSEVQLVESGGGLVQAGGSLRLSCAASGSPISSYAMGWYRQAPGKPRELVARIYTGGTAWYEDSVKGRFTISRDNAQNTVYLQMNSLKSEDTAVYYCHGRVRYDYWGQGTQVTVSS
For the molecule B4, in assay [1], the EC50, enhancement of CD62L-ectodomain shedding at 1.5 µM NAD was found to be 0.06 nM; the EC50, enhancement of CD62L-ectodomain shedding at 33 µM ATP worked out at 0.1 nM; the increase in potency vs. monovalent 14D5 (ATP-induced shedding) worked out at 220 fold; the increase in potency vs. monovalent 14D5 (NAD-induced shedding) was 40 fold.

B5: HBSAGPMP2E12 (VHH)
VHH: EVQLVESGGGLVQAGGSLRLSCAASGRSISEYAMGWFRQAPGQEREFVASISTSGGSTTYADSVKGRFIISRDNAKNTVYLQMNSLKPEDTAVYYCARYNGWMYYAGTMGVHFGQGTQVTVSS
In assay [2], B5 gave a koff of 0.0013 s⁻¹.
